Laboratory results published in publication PMC12060060 (Investigative Ophthalmology & Visual Science, 2025).

Target: the molecule itself
Assay: dynamic light scattering

B1: Q147E deamidated αA-crystallin (recombinant human) (natural protein, UniProt P02489 1-173, looked up)
chain: MDVTIQHPWFKRTLGPFYPSRLFDQFFGEGLFEYDLLPFLSSTISPYYRQSLFRTVLDSGISEVRSDRDKFVIFLDVKHFSPEDLTVKVQDDFVEIHGKHNERQDDHGYISREFHRRYRLPSNVDQSALSCSLSADGMLTFCGPKIETGLDATHAERAIPVSREEKPTSAPSS
  binding result: binds
